Experiments:
Experiment in all cases: SPR Biacore T100, 21-4-3 captured on anti-mouse IgG, 500 nM analyte
SEQ ID NO: 49 = molecular target: T1, SEQ ID NO: 49
T1 construct: V5L, I23A, E44G, A49S, A68T, A74S, T78L, W79Y, K83R, T110Q, Q108L
Method: (§1) Binding measurements were performed using a Biacore T100 using a CM5 T120416 sensor chip, with running buffer HBS-EP+, 25° C. […] The anti-mouse IgG used was a polyclonal rabbit anti-mouse IgG antibodies reacting with all IgG subclasses, IgA and IgM (GE Healthcare; Cat #BR-1008-38; Lot #10056316). Immobilisation of the anti-mouse IgG was performed using manual amine coupling using a 7 minute injection of EDC/NHS for activation and a 7 minute injection of 1M ethanolamine HCl pH 8.5 for deactivation (Biacore, amine coupling kit).

SEQ ID NO: 83 = molecular target: T2, SEQ ID NO: 83
T2 construct: T87A
Method: as §1

SEQ ID NO: 45 = molecular target: T3, SEQ ID NO: 45
T3 construct: P14A, P41T, S62F, S74A, S82bN, R83K, L108Q
Method: as §1

SEQ ID NO: 44 = molecular target: T4, SEQ ID NO: 44
T4 construct: no mutations
Method: as §1

SEQ ID NO: 41 = molecular target: T5, SEQ ID NO: 41
T5 construct: no mutations
Method: as §1

SEQ ID NO: 61 = molecular target: T6, SEQ ID NO: 61
T6 construct: no mutations
Method: as §1

SEQ ID NO: 43 = molecular target: T7, SEQ ID NO: 43
T7 construct: no mutations
Method: as §1

SEQ ID NO: 86 = molecular target: T8, SEQ ID NO: 86
T8 construct: L11S, T110Q
Method: as §1

SEQ ID NO: 89 = molecular target: T9, SEQ ID NO: 89
T9 construct: L11S, P14A, T110Q, S112G, S113G
Method: as §1

SEQ ID NO: 75 = molecular target: T10, SEQ ID NO: 75
T10 construct: no mutations
Method: as §1

SEQ ID NO: 37 = molecular target: T11, SEQ ID NO: 37
T11 construct: no mutations
Method: as §1

SEQ ID NO: 73 = molecular target: T12, SEQ ID NO: 73
T12 construct: S112G, S113G
Method: as §1

SEQ ID NO: 55 = molecular target: T13, SEQ ID NO: 55
T13 construct: no mutations
Method: as §1

SEQ ID NO: 62 = molecular target: T14, SEQ ID NO: 62
T14 construct: no mutations
Method: as §1

SEQ ID NO: 39 = molecular target: T15, SEQ ID NO: 39
T15 construct: no mutations
Method: as §1

SEQ ID NO: 63 = molecular target: T16, SEQ ID NO: 63
T16 construct: no mutations
Method: as §1

SEQ ID NO: 79 = molecular target: T17, SEQ ID NO: 79
T17 construct: no mutations
Method: as §1

SEQ ID NO: 67 = molecular target: T18, SEQ ID NO: 67
T18 construct: R83K
Method: as §1

SEQ ID NO: 70 = molecular target: T19, SEQ ID NO: 70
T19 construct: T110Q
Method: as §1

SEQ ID NO: 47 = molecular target: T20, SEQ ID NO: 47
T20 construct: no mutations
Method: as §1

SEQ ID NO: 77 = molecular target: T21, SEQ ID NO: 77
T21 construct: no mutations
Method: as §1

SEQ ID NO: 87 = molecular target: T22, SEQ ID NO: 87
T22 construct: L11S, S112G, S113G
Method: as §1

SEQ ID NO: 85 = molecular target: T23, SEQ ID NO: 85
T23 construct: L11S, T110Q, S112G, S113G
Method: as §1

SEQ ID NO: 71 = molecular target: T24, SEQ ID NO: 71
T24 construct: S113G
Method: as §1

SEQ ID NO: 58 = molecular target: T25, SEQ ID NO: 58
T25 construct: no mutations
Method: as §1

SEQ ID NO: 81 = molecular target: T26, SEQ ID NO: 81
T26 construct: L11V
Method: as §1

SEQ ID NO: 48 = molecular target: T27, SEQ ID NO: 48
T27 construct: no mutations
Method: as §1

SEQ ID NO: 52 = molecular target: T28, SEQ ID NO: 52
T28 construct: S112G
Method: as §1

SEQ ID NO: 80 = molecular target: T29, SEQ ID NO: 80
T29 construct: T110Q, S112G, S113G
Method: as §1

SEQ ID NO: 66 = molecular target: T30, SEQ ID NO: 66
T30 construct: L11S
Method: as §1

SEQ ID NO: 74 = molecular target: T31, SEQ ID NO: 74
T31 construct: no mutations
Method: as §1

SEQ ID NO: 68 = molecular target: T32, SEQ ID NO: 68
T32 construct: P14A, L108Q
Method: as §1

SEQ ID NO: 38 = molecular target: T33, SEQ ID NO: 38
T33 construct: no mutations
Method: as §1

SEQ ID NO: 69 = molecular target: T34, SEQ ID NO: 69
T34 construct: L108Q
Method: as §1

SEQ ID NO: 57 = molecular target: T35, SEQ ID NO: 57
T35 construct: no mutations
Method: as §1

SEQ ID NO: 40 = molecular target: T36, SEQ ID NO: 40
T36 construct: no mutations
Method: as §1

SEQ ID NO: 76 = molecular target: T37, SEQ ID NO: 76
T37 construct: no mutations
Method: as §1

SEQ ID NO: 65 = molecular target: T38, SEQ ID NO: 65
T38 construct: P14A
Method: as §1

SEQ ID NO: 84 = molecular target: T39, SEQ ID NO: 84
T39 construct: S112G
Method: as §1

SEQ ID NO: 78 = molecular target: T40, SEQ ID NO: 78
T40 construct: Q13R
Method: as §1

SEQ ID NO: 88 = molecular target: T41, SEQ ID NO: 88
T41 construct: L11S, T110Q
Method: as §1

SEQ ID NO: 82 = molecular target: T42, SEQ ID NO: 82
T42 construct: P84A
Method: as §1

SEQ ID NO: 60 = molecular target: T43, SEQ ID NO: 60
T43 construct: no mutations
Method: as §1

SEQ ID NO: 42 = molecular target: T44, SEQ ID NO: 42
T44 construct: no mutations
Method: as §1

SEQ ID NO: 72 = molecular target: T45, SEQ ID NO: 72
T45 construct: S112G, S113G
Method: as §1

SEQ ID NO: 59 = molecular target: T46, SEQ ID NO: 59
T46 construct: no mutations
Method: as §1

SEQ ID NO: 64 = molecular target: T47, SEQ ID NO: 64
T47 construct: no mutations
Method: as §1

T38 sequence (VHH, as listed by the source): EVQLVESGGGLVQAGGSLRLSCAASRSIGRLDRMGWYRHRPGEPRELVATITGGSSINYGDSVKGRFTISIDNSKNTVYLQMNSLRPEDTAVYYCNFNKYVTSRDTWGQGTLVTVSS
T36 sequence (chain, as listed by the source): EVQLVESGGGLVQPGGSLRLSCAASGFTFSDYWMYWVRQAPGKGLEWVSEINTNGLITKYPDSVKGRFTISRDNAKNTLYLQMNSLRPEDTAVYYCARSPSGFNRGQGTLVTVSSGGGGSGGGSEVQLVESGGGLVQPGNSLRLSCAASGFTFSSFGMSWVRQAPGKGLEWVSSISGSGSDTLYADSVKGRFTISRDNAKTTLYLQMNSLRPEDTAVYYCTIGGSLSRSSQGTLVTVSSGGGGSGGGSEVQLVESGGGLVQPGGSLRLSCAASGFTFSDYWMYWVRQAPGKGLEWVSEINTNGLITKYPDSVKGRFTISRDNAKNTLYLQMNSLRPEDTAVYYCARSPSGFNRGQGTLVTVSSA
T19 sequence (VHH, as listed by the source): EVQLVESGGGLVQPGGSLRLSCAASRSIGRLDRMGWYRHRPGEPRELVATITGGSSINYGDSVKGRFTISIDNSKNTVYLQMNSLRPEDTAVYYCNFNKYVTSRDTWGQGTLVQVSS
T39 sequence (VHH, as listed by the source): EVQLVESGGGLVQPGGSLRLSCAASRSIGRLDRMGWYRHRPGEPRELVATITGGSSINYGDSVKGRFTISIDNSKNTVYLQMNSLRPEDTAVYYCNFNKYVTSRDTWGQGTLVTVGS
T40 sequence (VHH, as listed by the source): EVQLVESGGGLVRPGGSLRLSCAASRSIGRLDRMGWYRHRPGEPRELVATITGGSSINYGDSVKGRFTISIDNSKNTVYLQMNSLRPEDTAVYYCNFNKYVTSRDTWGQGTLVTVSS
T14 sequence (chain, as listed by the source): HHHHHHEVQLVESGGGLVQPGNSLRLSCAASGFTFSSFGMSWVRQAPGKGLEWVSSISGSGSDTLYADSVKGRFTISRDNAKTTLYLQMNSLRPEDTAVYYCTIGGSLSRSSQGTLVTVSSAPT
T20 sequence (VHH, as listed by the source): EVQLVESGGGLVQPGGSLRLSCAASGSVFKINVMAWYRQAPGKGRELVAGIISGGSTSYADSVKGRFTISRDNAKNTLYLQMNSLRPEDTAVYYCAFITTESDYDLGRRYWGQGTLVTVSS
T25 sequence (chain, as listed by the source): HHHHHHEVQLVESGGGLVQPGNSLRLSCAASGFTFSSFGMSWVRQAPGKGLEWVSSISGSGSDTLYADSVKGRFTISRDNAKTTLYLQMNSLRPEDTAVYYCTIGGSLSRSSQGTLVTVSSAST
T47 sequence (chain, as listed by the source): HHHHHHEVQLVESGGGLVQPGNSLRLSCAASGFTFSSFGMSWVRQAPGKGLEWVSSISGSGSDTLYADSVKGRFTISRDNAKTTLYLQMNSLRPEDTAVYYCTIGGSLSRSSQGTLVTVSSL
T27 sequence (VHH, as listed by the source): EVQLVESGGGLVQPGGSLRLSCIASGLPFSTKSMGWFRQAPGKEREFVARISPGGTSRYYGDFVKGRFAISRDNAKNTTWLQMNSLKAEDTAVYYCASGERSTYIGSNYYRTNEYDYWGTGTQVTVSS
T4 sequence (chain, as listed by the source): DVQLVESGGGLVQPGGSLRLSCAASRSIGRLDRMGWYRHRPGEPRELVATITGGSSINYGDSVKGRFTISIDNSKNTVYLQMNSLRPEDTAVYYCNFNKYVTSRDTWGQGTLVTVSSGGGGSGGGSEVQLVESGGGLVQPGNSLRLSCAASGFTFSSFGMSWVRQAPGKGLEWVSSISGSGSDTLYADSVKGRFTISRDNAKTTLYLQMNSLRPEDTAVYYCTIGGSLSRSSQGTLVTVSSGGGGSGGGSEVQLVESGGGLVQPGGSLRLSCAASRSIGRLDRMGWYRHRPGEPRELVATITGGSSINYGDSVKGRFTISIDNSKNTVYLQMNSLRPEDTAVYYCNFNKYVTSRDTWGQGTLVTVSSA
T28 sequence (chain, as listed by the source): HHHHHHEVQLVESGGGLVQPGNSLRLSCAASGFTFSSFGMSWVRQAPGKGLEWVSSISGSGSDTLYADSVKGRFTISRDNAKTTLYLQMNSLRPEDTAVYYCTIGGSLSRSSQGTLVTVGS
T15 sequence (chain, as listed by the source): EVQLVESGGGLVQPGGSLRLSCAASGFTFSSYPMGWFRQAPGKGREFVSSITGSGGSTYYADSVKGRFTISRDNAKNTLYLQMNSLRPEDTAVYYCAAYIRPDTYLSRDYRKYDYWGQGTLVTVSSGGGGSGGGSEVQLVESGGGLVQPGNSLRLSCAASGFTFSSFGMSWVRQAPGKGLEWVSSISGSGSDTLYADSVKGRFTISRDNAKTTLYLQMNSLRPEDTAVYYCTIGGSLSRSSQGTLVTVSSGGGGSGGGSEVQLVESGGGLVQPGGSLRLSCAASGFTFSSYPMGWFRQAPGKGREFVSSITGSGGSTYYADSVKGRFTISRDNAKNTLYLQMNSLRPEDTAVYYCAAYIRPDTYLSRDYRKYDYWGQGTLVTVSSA
T29 sequence (VHH, as listed by the source): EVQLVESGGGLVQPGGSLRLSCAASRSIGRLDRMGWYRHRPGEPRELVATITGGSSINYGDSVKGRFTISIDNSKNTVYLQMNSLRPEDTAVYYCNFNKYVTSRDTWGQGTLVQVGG
T42 sequence (VHH, as listed by the source): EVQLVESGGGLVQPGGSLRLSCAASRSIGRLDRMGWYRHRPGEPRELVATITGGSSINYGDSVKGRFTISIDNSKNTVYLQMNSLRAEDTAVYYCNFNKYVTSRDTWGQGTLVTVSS
T7 sequence (chain, as listed by the source): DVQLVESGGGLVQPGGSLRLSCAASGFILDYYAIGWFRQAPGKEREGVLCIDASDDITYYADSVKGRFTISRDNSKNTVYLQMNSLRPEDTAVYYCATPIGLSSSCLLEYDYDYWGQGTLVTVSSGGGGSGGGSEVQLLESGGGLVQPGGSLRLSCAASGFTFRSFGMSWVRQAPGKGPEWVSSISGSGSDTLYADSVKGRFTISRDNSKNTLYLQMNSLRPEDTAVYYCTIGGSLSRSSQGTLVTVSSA
T46 sequence (chain, as listed by the source): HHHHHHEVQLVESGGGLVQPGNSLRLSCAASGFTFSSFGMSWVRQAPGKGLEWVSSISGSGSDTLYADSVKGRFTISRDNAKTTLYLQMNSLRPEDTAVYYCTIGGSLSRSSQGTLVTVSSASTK
T16 sequence (chain, as listed by the source): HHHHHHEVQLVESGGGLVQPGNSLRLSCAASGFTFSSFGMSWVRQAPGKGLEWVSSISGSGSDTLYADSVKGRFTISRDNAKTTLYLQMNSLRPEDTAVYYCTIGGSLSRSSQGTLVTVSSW
T32 sequence (VHH, as listed by the source): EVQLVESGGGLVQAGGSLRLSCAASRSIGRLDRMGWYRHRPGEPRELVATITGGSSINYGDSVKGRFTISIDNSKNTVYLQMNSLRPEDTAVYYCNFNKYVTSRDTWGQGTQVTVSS
T12 sequence (VHH, as listed by the source): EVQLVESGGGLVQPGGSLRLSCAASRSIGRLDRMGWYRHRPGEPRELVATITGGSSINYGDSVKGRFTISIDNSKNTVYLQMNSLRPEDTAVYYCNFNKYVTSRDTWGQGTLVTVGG
T30 sequence (VHH, as listed by the source): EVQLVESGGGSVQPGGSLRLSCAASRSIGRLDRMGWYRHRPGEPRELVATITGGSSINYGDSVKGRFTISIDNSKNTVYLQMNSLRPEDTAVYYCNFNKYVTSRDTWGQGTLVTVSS
T22 sequence (VHH, as listed by the source): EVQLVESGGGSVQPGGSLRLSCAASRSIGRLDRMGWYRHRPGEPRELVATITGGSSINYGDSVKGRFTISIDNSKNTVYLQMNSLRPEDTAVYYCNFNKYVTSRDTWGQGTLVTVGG
T21 sequence (VHH, as listed by the source): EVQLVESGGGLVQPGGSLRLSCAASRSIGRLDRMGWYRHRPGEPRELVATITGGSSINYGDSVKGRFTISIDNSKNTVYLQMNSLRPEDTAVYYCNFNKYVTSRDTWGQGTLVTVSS
T1 sequence (VHH, as listed by the source): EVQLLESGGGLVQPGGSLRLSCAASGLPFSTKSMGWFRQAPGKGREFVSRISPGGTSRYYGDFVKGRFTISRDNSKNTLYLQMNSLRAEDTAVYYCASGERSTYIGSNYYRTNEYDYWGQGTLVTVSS
T8 sequence (VHH, as listed by the source): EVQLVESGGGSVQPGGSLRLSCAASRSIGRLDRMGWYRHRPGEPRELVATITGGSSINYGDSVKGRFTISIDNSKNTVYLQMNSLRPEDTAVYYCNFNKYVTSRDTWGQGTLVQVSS

B1: monoclonal antibody 21-4-3 (antibody, V domains shown)
VH: QIQLVQSGPELKKPGETVKISCKASGYTFTAYSMHWVKQAPGKGLKWMGWINTVTGEPAYADDFKGRFAFSLETSASTAYLQISSLKNEDTATYFCTRGLIHFYYWGQGTTLTVSS
VL: DIQMTQTPSSLSASLGGRVTITCKASQDIHNFISWYQHKPGKVPRLIIHDTSTLQPGIPSRFSGSGSGRDYSFSITNLEPEDIATYYCLHYDNLLRSFGGGTKLEIKR
notes: also called mAb21-4-3; mAb 21-4-3
binding level as % of reference sequence (=100%) (SEQ ID NO: 49): 4%
binding level as % of reference sequence (=100%) (SEQ ID NO: 83): 79%
binding level as % of reference sequence (=100%) (SEQ ID NO: 45): 22%
binding level as % of reference sequence (=100%) (SEQ ID NO: 44): 1%
binding level as % of reference sequence (=100%) (SEQ ID NO: 41): 7%
binding level as % of reference sequence (=100%) (SEQ ID NO: 61): 6%
binding level as % of reference sequence (=100%) (SEQ ID NO: 43): 3%
binding level as % of reference sequence (=100%) (SEQ ID NO: 86): 64%
binding level as % of reference sequence (=100%) (SEQ ID NO: 89): 2%
binding level as % of reference sequence (=100%) (SEQ ID NO: 75): 1%
binding level as % of reference sequence (=100%) (SEQ ID NO: 37): 7%
binding level as % of reference sequence (=100%) (SEQ ID NO: 73): 1%
binding level as % of reference sequence (=100%) (SEQ ID NO: 55): 6%
binding level as % of reference sequence (=100%) (SEQ ID NO: 62): 6%
binding level as % of reference sequence (=100%) (SEQ ID NO: 39): 0%
binding level as % of reference sequence (=100%) (SEQ ID NO: 63): 3%
binding level as % of reference sequence (=100%) (SEQ ID NO: 79): 2%
binding level as % of reference sequence (=100%) (SEQ ID NO: 67): 101%
binding level as % of reference sequence (=100%) (SEQ ID NO: 70): 106%
binding level as % of reference sequence (=100%) (SEQ ID NO: 47): 4%
binding level as % of reference sequence (=100%) (SEQ ID NO: 77): 1%
binding level as % of reference sequence (=100%) (SEQ ID NO: 87): 41%
binding level as % of reference sequence (=100%) (SEQ ID NO: 85): 32%
binding level as % of reference sequence (=100%) (SEQ ID NO: 71): 44%
binding level as % of reference sequence (=100%) (SEQ ID NO: 58): 6%
binding level as % of reference sequence (=100%) (SEQ ID NO: 81): 75%
binding level as % of reference sequence (=100%) (SEQ ID NO: 48): 3%
binding level as % of reference sequence (=100%) (SEQ ID NO: 52): 100%
binding level as % of reference sequence (=100%) (SEQ ID NO: 80): 51%
binding level as % of reference sequence (=100%) (SEQ ID NO: 66): 48%
binding level as % of reference sequence (=100%) (SEQ ID NO: 74): 1%
binding level as % of reference sequence (=100%) (SEQ ID NO: 68): 26%
binding level as % of reference sequence (=100%) (SEQ ID NO: 38): 0%
binding level as % of reference sequence (=100%) (SEQ ID NO: 69): 106%
binding level as % of reference sequence (=100%) (SEQ ID NO: 57): 6%
binding level as % of reference sequence (=100%) (SEQ ID NO: 40): 1%
binding level as % of reference sequence (=100%) (SEQ ID NO: 76): 2%
binding level as % of reference sequence (=100%) (SEQ ID NO: 65): 23%
binding level as % of reference sequence (=100%) (SEQ ID NO: 84): 91%
binding level as % of reference sequence (=100%) (SEQ ID NO: 78): 1%
binding level as % of reference sequence (=100%) (SEQ ID NO: 88): 1%
binding level as % of reference sequence (=100%) (SEQ ID NO: 82): 56%
binding level as % of reference sequence (=100%) (SEQ ID NO: 60): 6%
binding level as % of reference sequence (=100%) (SEQ ID NO: 42): 0%
binding level as % of reference sequence (=100%) (SEQ ID NO: 72): 45%
binding level as % of reference sequence (=100%) (SEQ ID NO: 59): 6%
binding level as % of reference sequence (=100%) (SEQ ID NO: 64): 6%

Reference: patent publication US20230242620A1 (published 2023)
